In US20130253037A1 (PURDUE RESEARCH FOUNDATION, published 2013):

Molecular target: T1, Aurora A kinase (endogenous, MDA-MB-231 cells) (human, UniProt O14965 1-403)
T1 sequence (looked up): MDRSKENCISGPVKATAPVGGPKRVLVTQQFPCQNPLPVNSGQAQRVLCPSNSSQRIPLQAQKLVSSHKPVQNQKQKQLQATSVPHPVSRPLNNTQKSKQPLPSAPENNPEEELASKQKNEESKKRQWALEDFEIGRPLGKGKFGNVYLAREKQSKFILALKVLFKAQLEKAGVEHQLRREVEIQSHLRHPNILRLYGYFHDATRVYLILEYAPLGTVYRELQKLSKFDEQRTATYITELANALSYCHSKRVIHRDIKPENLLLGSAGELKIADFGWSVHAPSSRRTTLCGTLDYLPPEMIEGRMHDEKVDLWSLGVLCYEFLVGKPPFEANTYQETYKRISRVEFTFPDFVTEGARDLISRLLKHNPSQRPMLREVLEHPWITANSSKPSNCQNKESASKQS
Experiment: HA-tagged truncated LIMK2 mutants expressed in MDA cells, isolated and analyzed for Aurora A binding
Experimental: LIMK2 contains two LIM domains (12-129), a PDZ domain (152-236), an S/P domain (240-328) and a kinase domain (331-601) (Scott and Olson (2007) J. Mol. Med. 85, 555-568). […] These mutants were transiently expressed in MDA cells, isolated and analyzed for Aurora A binding.
We next investigated whether association of LIM domains of LIMK2 is sufficient for Aurora A stabilization. […] After 30 h, cells were lysed, HA-tagged LIMK2 proteins were isolated and probed for Aurora A binding. […] After 30 h, cells were lysed, HA-tagged LIMK2 proteins were isolated and probed for Aurora A binding.

- binding result: binds
B1: HA-tagged (1-145) LIMK2 (other, not shown: small tags and cut ends)
chain: MSALAGEDVWRCPGCGDHIAPSQIWYRTVNETWHGSCFRCSECQDSLTNWYYEKDGKLYCPKDYWGKFGEFCHGCSLLMTGPFMVAGEFKYHPECFACMSCKVIIEDGDAYALVQHATLYCGKCHNEVVLAPMFERLSTESVQEQ
notes: also called truncated LIMK2 mutant containing two LIM domains
